One substance from PMC6591005 can be followed below.

For the experiment, the target named is GII.4.2002 P domain (human norovirus GII.4 2002 (Farmington Hills)). As to the kind of experiment: crystal structure.

The substance “GII.4.2002 P domain (domain or fragment)” returned a stoichiometry N of 2.

One may read the stoichiometry N as the number of molecules, sites or subunits per partner or assembly.
